These results are taken from patent publication US5352587A, “Compositions and methods for the synthesis of natriuretic protein receptor B and methods of use” (Genentech, Inc., priority 1991, dated 1994).

Ends that are not written are not given here.

One data set concerns the target T1, NPRA (Homo sapiens, UniProt P16066).
T1 construct: whole cells or solubilized membranes
T1 sequence (P16066 33-1061): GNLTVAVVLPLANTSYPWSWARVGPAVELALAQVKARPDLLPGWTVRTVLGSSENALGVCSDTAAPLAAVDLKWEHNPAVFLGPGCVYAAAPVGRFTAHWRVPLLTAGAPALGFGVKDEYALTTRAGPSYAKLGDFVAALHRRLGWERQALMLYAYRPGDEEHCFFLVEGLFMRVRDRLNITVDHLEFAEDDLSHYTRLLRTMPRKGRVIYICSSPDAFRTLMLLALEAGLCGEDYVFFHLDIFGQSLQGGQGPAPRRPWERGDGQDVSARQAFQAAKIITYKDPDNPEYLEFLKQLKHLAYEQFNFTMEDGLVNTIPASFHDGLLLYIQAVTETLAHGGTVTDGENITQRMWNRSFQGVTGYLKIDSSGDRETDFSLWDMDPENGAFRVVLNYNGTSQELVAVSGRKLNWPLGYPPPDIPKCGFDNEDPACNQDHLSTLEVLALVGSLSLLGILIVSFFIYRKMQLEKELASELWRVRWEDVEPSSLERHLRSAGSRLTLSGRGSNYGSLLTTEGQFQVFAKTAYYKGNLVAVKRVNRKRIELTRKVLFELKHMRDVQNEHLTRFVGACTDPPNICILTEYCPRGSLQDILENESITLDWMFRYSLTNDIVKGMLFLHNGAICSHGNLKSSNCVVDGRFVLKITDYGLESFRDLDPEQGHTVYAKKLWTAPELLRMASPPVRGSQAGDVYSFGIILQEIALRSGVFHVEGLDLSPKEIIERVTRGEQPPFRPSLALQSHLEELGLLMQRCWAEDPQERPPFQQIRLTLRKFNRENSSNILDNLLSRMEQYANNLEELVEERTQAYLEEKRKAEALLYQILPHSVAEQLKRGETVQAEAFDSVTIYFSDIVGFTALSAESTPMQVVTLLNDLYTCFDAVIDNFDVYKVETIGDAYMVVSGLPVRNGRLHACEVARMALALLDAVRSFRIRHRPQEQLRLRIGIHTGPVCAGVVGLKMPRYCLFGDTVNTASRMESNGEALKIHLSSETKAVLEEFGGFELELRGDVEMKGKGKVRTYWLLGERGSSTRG
As to the kind of experiment: Specific binding to COS-7 cells transfected with pRK-NPRA. The following applies: Table 2, 0.5 nM, room temperature, 1 hr. The protocol:
(§1) To examine the biochemical properties of the NPRB receptor, we constructed an expression vector in which the coding sequence was placed under the transcriptional control of the cytomegalovirus immediate-early promoter (Table 2). […] The NPRB expression vector was transfected into COS-2 cells in a transient expression assay and the detergent solubilized guanylyl cyclase activity of a membrane fraction was measured (Table 2). […] Specific binding of [^125 l]-human ANP (ANP) and [^125 l]-porcine BNP (pBNP) to transfected cells was determined in the presence of absence of unlabeled peptides.
(§2) COS-7 cells maintained in Dulbecco's modified Eagles' medium (DMEM) supplemented with 10% fetal calf serum were seeded at 5×10^6 cells per 100 mm plate (GC assay) or 1×10^5 per 35 mm plate (binding assay). Twelve house later, cells were transfected with control vector^5 (1 mg/ml) using DEAE-dextran.
(§3) Following the incubation, cells were rinsed with cold PBS, and dissolved in 2 ml of 0.2M NaOH and radioactivity was measured in gamma counter. All measurements were in triplicate. […] Specific binding in table 2 was calculated by subtracting the background binding from the total binding.

Data set [1] concerns the target T2, NPRB (Homo sapiens, UniProt P20594).
T2 construct: whole cells or solubilized membranes
T2 sequence (P20594 23-1047): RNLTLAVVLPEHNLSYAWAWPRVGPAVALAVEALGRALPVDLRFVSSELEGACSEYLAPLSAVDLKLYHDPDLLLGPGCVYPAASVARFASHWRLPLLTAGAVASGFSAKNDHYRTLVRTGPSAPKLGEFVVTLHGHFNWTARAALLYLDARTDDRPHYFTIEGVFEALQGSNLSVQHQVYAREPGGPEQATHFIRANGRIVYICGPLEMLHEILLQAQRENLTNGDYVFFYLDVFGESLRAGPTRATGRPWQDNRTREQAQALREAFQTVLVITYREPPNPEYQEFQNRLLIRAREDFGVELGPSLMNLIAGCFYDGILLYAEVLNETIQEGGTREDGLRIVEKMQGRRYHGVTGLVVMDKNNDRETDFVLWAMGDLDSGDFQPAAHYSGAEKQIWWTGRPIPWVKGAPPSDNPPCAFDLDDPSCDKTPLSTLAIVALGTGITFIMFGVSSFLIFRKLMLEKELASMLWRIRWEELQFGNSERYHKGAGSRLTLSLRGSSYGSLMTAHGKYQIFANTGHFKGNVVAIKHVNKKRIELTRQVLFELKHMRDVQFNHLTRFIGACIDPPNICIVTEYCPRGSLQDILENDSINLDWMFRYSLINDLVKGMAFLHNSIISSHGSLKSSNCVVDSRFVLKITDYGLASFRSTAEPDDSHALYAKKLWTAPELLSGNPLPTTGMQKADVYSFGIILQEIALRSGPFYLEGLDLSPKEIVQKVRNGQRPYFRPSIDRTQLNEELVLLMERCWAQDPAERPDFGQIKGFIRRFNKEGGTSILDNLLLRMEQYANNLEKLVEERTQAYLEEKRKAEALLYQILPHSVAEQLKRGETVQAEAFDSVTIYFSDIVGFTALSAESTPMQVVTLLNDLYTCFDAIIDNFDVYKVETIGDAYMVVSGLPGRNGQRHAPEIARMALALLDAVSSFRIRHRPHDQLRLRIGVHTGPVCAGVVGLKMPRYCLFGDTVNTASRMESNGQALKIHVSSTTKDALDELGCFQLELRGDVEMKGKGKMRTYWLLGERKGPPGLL
Nature of the data set: Specific binding to COS-7 cells transfected with pRK-NPRB. The following applies: Table 2, 0.5 nM, room temperature, 1 hr. The protocol: as §1, §2, §3

Another data set has as its system guanylyl cyclase. Nature of the data set: Detergent-solubilized membrane (particulate) guanylyl cyclase activity of transfected COS cells. Format: biochemical, human. The following applies: for guanylyl cyclase specific activity, fold higher than control cells: COS-2 cells, membrane fraction; for Guanylyl Cyclase Activity: Table 2, transfected COS-7 cells, mean ± standard deviation of triplicate determinations. Here is the method: To examine the biochemical properties of the NPRB receptor, we constructed an expression vector in which the coding sequence was placed under the transcriptional control of the cytomegalovirus immediate-early promoter (Table 2). The vector pRK is disclosed in EP 307,247, published Mar. 15, 1989. The NPRB expression vector was transfected into […] in a transient expression assay and the detergent solubilized guanylyl cyclase activity of a membrane fraction was measured (Table 2). Cells transfected with the NPRB expression vector has about eleven-fold higher guanylyl cyclase specific activity that control cells, while cells transfected with an NPRA receptor expression vector^5 using pRK has a six-fold higher guanylyl cyclase specific activity. Specific binding of [^125 l]-human ANP (ANP) and [^125 l]-porcine BNP (pBNP) to transfected cells was determined in the presence of absence of unlabeled peptides.
COS-7 cells maintained in Dulbecco's modified Eagles' medium (DMEM) supplemented with 10% fetal calf serum were seeded at 5×10^6 cells per 100 mm plate (GC assay) or 1×10^5 per 35 mm plate (binding assay). Twelve house later, cells were transfected with control vector^5 (1 mg/ml) using DEAE-dextran. The vector pRK-NPRBR contained nucleotides 253 to 3470 (FIG. 1) of the NPRB receptor in the expression vector pRK5 under the control of the cytomegalovirus immediate early promoter.
Guanylate cyclase activity was determined forty-eight hours after transfection, the cells were washed with phosphate buffer saline (PBS), scraped into 4 ml PBS and homogenized with 40 strokes of a Dounce homogenizer at 0° C. Nuclei were pelleted and the supernatant was centrifuged at 100,000 xg for 30 minutes in SW 55- Ti rotor to obtain a membrane pellet. Membrane proteins were solubilized by incubation or ice for 10 minutes in solution containing 20 mM Hepes, pH 7.4, 200 mM NaCl, 10% glycerol, 1% Triton X-100 and 1 mM dithiothreitol. Protein concentrations were measured by a dye binding assay (BioRad). Gyanylate cyclase reactions contained […] of membrane proteins in […] of 20 mM Hepes pH 7.4, 30 units of creatine phosphokinase, 1 mM GTP, 4 mM MnCl2 and 0.5 mM isobutyl methylxanthine (IBMX). After incubation at 37° C. for 10 minutes the reaction was stopped by addition of […] of 50 mM acetic acid (pH 6.2) and boiled for 3 min. Aliquots were analyzed for cGMP after acetylation with 1/20 volume of acetic anhydride/triethylamine (1:2) then radioimmuno-assay (Biomedical Technologies, Inc.). Results are expressed in Table 2 as the mean±standard deviation of triplicate determinations.

Data set [2] has as its target T2, NPRB. Nature of the data set: Transient expression whole-cell stimulation of cGMP production, NPRB-transfected COS-7 cells. Format: cell-based. Here is the method: Ligand-dependent activation of the cytoplasmic guanylyl cyclase (GC) domains of the human NPRB and NPRA receptors was examined in transient expression whole-cell stimulation assays. In FIG. 3, the natriuretic peptide stimulation of cGMP production is shown. COS-7 cells transfected with pRK (control; pane C), human NPRA expression vector^5 (panel A), or human NPRB receptor expression vector (panel B) were either not treated (panel C) or stimulated with 500 nM porcine BNP (BNP) or human ANP (ANP) for 5 minutes. Results are expressed as the mean amount of cGMP (pmoles) per culture±standard deviation for 3 independent determinations.
The COS-7 cells were seeded at a density of 1×10^6 cells per well in a 60 mm plate with high glucose DMEM plus 10% heat inactivated dialyzed calf serum and maintained for 12 hours at 37° C. in 7%, 93% air. […] of plasmid DNA was transfected with […] of DEAE-dextran in 2 ml of high glucose DMEM±10% Nuserum (Gibco) for 4 hours. Cells were shocked with 20% glycerol in PBS for 1 minute, fresh medium was added and cells were maintained for 72 hours prior to stimulation. Non-treated cultures were incubated at 37° C. in DMEM with 25 mM Hepes pH 7.2, […] IBMX at 37° C. for 10 minutes, medium was aspirated and 6% trichloroacetic acid (TCA) was added. Stimulated samples were treated for an additional 5 minutes in the presence of 500 nM peptide before TCA treatment. Samples were frozen at -20° C. for 1 hr, thawed at room temperature, and cell debris was removed by centrifugation at 2500 xg for 10 minutes. Samples were extracted once with 4 volumes of water-saturated ether, briefly evaporated and assayed for cGMP as described in Table 2.

As to “[^125 l]-pBNP: [^125 l]-porcine BNP (600 Ci/mmol) (DSGCFGRRLDRIGSLSGLGCNVLRRY; ends and bridges not checked; also: 125I label, position not given here; UniProt P07634 106-131, looked up)”, the “Specific Binding of [^125 l]-pBNP” value with NPRA is reported as 5,721 ± 1107 cpm; with NPRB [1], 3,643 ± 26 cpm.

Take “[^125 l]-ANP: [^125 l]-human ANP (1800 Ci/mmole, Amersham)”: the “Specific Binding of [^125 l]-ANP” value with NPRB [1] is on record as 10,694 ± 1412 cpm.

With “NPRA: 120-140 kd NPRA receptor, a membrane form of guanylyl cyclase”, in the data set with guanylyl cyclase, the “guanylyl cyclase specific activity, fold higher than control cells” value is recorded as “six” and the “Guanylyl Cyclase Activity” value is recorded as 1.91 ± 0.01 pmole cGMP/min/mg protein.

In the case of “pBNP: porcine BNP (brain natriuretic peptide) (DSGCFGRRLDRIGSLSGLGCNVLRRY; ends and bridges not checked; cysteine pairing not given here; UniProt P07634 106-131, looked up)”, in the data set with NPRB [2] (NPRB, 500 nM peptide, 5 minutes), the “fold increase in cGMP over control transfected cells” value was 9.7 fold. In addition, the “fold more effective than ANP in the activation of NPRB GC activity” value with NPRB [2] (NPRB, 500 nM peptide, 5 minutes, versus ANP) was 6.4 fold. Besides, the “activation of NPRB receptor (in words)” value with NPRB [2] (pBNP as compared to human ANP) is given as “preferentially activated”.

B1: NPRB: human natriuretic peptide receptor B having the sequence of FIG. 1, expressed from pRK vector (protein, UniProt P20594 23-1047, looked up)
Atrial natriuretic peptide …: T2 sequence (P20594 23-1047)
For B1, in the data set with guanylyl cyclase, the “guanylyl cyclase specific activity, fold higher than control cells” value was “about eleven” and the “Guanylyl Cyclase Activity” value is 3.50 ± 0.01 pmole cGMP/min/mg protein.
